Data on 1 molecule can be found in WO2018134681A1 (dated 2018).

For test [1], the target named is T1, human TGF-β1 (human, UniProt P01137 279-390). The test is described as follows: cell-based or functional assay.
Test [2] deals with T2, human TGF-β2 (human, UniProt P61812 21-414).
T2 chain: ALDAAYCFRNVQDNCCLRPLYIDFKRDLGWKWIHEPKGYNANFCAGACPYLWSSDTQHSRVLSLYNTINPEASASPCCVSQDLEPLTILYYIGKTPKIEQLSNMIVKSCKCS
The test is described as follows: SPR, Biacore T200, TGF-β homodimer immobilized on CM5 chip, Ab1 injected, 1:1 model. Background: Surface plasmon resonance follows binding to a sensor surface in real time, without labels.

Test [3] has as its target T1, human TGF-β1. The test is described as above.
For test [4], the target named is T3, murine TGF-β1 (identical in amino acid sequence to rat TGF-β1) (mouse, UniProt P04202 279-390).
T3 construct: mature; also called Murine and Rat TGF-βΙ; murine/rat TGF-β1
T3 sequence (P04202 279-390 limits assumed): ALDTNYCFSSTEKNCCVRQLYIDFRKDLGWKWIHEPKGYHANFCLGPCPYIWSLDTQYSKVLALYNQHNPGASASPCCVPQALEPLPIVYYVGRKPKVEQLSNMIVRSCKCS
Described as above.

T1 sequence (P01137 279-390 limits assumed): as the sequence (P04202 279-390 limits assumed) above, with S75A counted along it

B1: Ab1 (antibody, human IgG4 S228P, kappa)
heavy: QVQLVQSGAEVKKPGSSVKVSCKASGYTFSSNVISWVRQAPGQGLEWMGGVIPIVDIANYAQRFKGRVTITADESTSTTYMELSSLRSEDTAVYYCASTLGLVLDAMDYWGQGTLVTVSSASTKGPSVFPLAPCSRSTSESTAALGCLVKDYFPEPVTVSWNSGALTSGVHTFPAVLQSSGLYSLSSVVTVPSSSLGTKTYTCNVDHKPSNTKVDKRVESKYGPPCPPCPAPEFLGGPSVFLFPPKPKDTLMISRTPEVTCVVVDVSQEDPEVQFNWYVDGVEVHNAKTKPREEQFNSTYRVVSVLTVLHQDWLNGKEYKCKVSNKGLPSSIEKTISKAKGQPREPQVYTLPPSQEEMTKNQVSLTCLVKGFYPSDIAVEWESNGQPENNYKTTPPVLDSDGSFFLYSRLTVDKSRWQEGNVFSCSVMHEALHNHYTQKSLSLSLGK
light: ETVLTQSPGTLSLSPGERATLSCRASQSLGSSYLAWYQQKPGQAPRLLIYGASSRAPGIPDRFSGSGSGTDFTLTISRLEPEDFAVYYCQQYADSPITFGQGTRLEIKRTVAAPSVFIFPPSDEQLKSGTASVVCLLNNFYPREAKVQWKVDNALQSGNSQESVTEQDSKDSTYSLSSTLTLSKADYEKHKVYACEVTHQGLSSPVTKSFNRGEC
notes: also called anti-TGF-β antibody Ab1; pan-TGF-β antibody
B1: the “NFAT-driven luciferase activity, fold change against isotype control Ab” value in test [1] is 1.45 fold change. The “NFAT-driven luciferase activity, fold change against no Ab control” value in test [1] is 1.45 fold change. Further, the Kd (in general, the free concentration of one partner at which half of the binding sites on the other are occupied at equilibrium, for simple one-to-one binding) in test [2] worked out at 3 nM; in test [3], 1.48 nM; in test [4], 2.8 nM.
